# B1: Pistol ribozyme (parent)
# chain: GGGUCGUUGUUCCAUAAUCGCGUGGAUAUGGCACGCAAGUUUCUACCGGGCACCGUAAAUGUCCGACUGGAGCCGUUCGGGCGGCUAUAAACAGACCUCAGGCCCGAAGCGUGGCGGCACCUGCCGCCGGUGGUAAAAAAGAUCGGAAGAGCACACGUCU
# Variants of: B1
# Assay: aptazyme ON/OFF ratio, guanine; higher = stronger switching; co-transcriptional cleavage with and without guanine
row,Variant,aptazyme ON/OFF ratio
1,U7G U10C U11A C12U C13U,1.1
2,U7G U10C U11A C12U C13G,1.11
3,U7G U8G U11A C12G C13U,1.33
4,U7G U8G U11A C12G C13A,1.11
5,U7G U8G U11A C12G C13G,1.15
6,U7G U8G U10C U11C C12A C13G,1.23
7,U7G U8G U10C U11C C12A C13U,1.22
8,U7G U8G U10C U11C C12A C13A,1.3
9,U7G U10A C12A C13G,1.12
10,U7G U10A C12A C13A,1.21
11,U7G U10A C12A C13U,1.18
12,U7G U10C U11C C12G C13A,1.1
13,U7G U10C U11C C12G C13G,1.08
14,U7G U10C U11C C12G C13U,1.06
15,U7G U8G U10G U11G C12G C13U,1.31
16,U7G U8G U10G U11G C12G C13G,1.18
17,U7G U8G U10G U11G C12G C13A,1.42
18,U7G U10A U11G C12G C13U,1.63
19,U7G U10A U11G C12G C13A,1.18
20,U7G U10A U11G C12G C13G,1.26
21,U7G U10A U11G C12A C13U,1.11
22,U7G U10A U11G C12A C13G,1.09
23,U7G U10A U11G C12A C13A,1.06
24,U7G U10C U11C C12A C13U,1.11

row,Variant,aptazyme ON/OFF ratio
1,U7G U10C U11C C12A C13A,1.08
2,U7G U10C U11C C12A C13G,1.08
3,U7G U10G C12A C13G,1.11
4,U7G U10G C12A C13U,1.34
5,U7G U10G C12A C13A,1.09
6,U7G U10G U11A C13A,1.11
7,U7G U10G U11A C13G,1.07
8,U7G U8G U10G U11G C13A,1.62
9,U7G U8G U10G U11G C13U,1.37
10,U7G U8G U10G U11G C13G,1.13
11,U7G U10A U11G C12G,1.21
12,U7G U10A U11G C12A,1.13
13,U7G U10A U11G C12U,1.32
14,U7G U8G U10C U11C C12U C13A,1.29
15,U7G U8G U10C U11C C12U C13U,1.4
16,U7G U8G U10C U11C C12U C13G,1.34
17,U7G U10A U11C C12G C13A,1.1
18,U7G U10A U11C C12G C13U,1.11
19,U7G U10A U11C C12G C13G,1.03
20,U7G U8G U11G C13A,1.21
21,U7G U8G U11G C13U,1.28
22,U7G U8G U11G C13G,1.39
23,U7G U8G U10G C13U,1.39
24,U7G U8G U10G C13A,1.45

row,Variant,aptazyme ON/OFF ratio
1,U7G U8G U10G C13G,1.47
2,U7G U8G U11G C12A C13G,1.21
3,U7G U8G U11G C12A C13A,1.24
4,U7G U8G U11G C12A C13U,1.35
5,U7G U10A U11A C12A C13U,1.07
6,U7G U10A U11A C12A C13G,1.11
7,U7G U10A U11A C12A C13A,1.14
8,U7G U8G U10C U11G C13G,1.21
9,U7G U8G U10C U11G C13U,1.47
10,U7G U8G U10C U11G C13A,1.26
11,U7G U8G U11G C12U C13U,1.37
12,U7G U8G U11G C12U C13G,1.26
13,U7G U8G U11G C12U C13A,1.5
14,U7G U8G U10G C12U,1.54
15,U7G U8G U10G C12G,1.3
16,U7G U8G U10G C12A,1.31
17,U7G U8G U10G U11G C12A C13A,1.25
18,U7G U8G U10G U11G C12A C13G,1.03
19,U7G U8G U10G U11G C12A C13U,1.33
20,U7G U10G U11A,1.21
21,U7G U8G U10G U11A,1.66
22,U7G U8G U10G U11C,2.08
23,U7G U8G U10G U11G,1.39
24,U7G U8G U10G U11G C12U C13U,1.32

row,Variant,aptazyme ON/OFF ratio
1,U7G U8G U10G U11G C12U C13G,1.13
2,U7G U8G U10G U11G C12U C13A,1.13
3,U7G U10G C12G,1.09
4,U7G U10G C12A,1.22
5,U7G U10G C12U,1.39
6,U7G U10C U11G C12G C13A,1.11
7,U7G U10C U11G C12G C13G,1.07
8,U7G U10C U11G C12G C13U,1.05
9,U7G U10A U11G C12U C13U,1.28
10,U7G U10A U11G C12U C13A,1.17
11,U7G U10A U11G C12U C13G,1.22
12,U7G U8G U10C C12U C13G,1.42
13,U7G U8G U10C C12U C13U,1.39
14,U7G U8G U10C C12U C13A,1.47
15,U7G U8G U10C U11A C12G C13A,1.17
16,U7G U8G U10C U11A C12G C13G,1.23
17,U7G U8G U10C U11A C12G C13U,1.27
18,U7G U10C U11A C12A,1.18
19,U7G U10C U11A C12G,1.18
20,U7G U10C U11A C12U,1.2
21,U7G U10C C12G C13G,1.04
22,U7G U10C C12G C13A,1.09
23,U7G U10C C12G C13U,1.14
24,U7G U10G U11A C12G C13G,1.13

row,Variant,aptazyme ON/OFF ratio
1,U7G U10G U11A C12G C13U,1.1
2,U7G U10G U11A C12G C13A,1.11
3,U7G U10A U11C C12A C13A,1.12
4,U7G U10A U11C C12A C13G,1.2
5,U7G U10A U11C C12A C13U,1.18
6,U7G U8G U10G C12G C13U,1.26
7,U7G U8G U10G C12G C13G,1.32
8,U7G U8G U10G C12G C13A,1.21
9,U7G U8G U11C C12U C13G,1.3
10,U7G U8G U11C C12U C13U,1.44
11,U7G U8G U11C C12U C13A,1.38
12,U7G U10A C12G,1.22
13,U7G U10A C12U,1.16
14,U7G U10A C12A,1.21
15,U7G U10A U11A,2.39
16,U7G U10A U11C,1
17,U7G U10A U11G,1.71
18,U7G U10G U11A C12A,1.14
19,U7G U10G U11A C12G,1.08
20,U7G U10G U11A C12U,1.1
21,U7G U8G U11G C12G C13G,1.21
22,U7G U8G U11G C12G C13A,1.18
23,U7G U8G U11G C12G C13U,1.09
24,U7G U8G U10C C13G,1.17

row,Variant,aptazyme ON/OFF ratio
1,U7G U8G U10C C13U,1.81
2,U7G U8G U10C C13A,1.33
3,U7G U8G U10C C12U,1.52
4,U7G U8G U10C C12G,1.09
5,U7G U8G U10C C12A,1.49
6,U7G U10A C13G,1.12
7,U7G U10A C13U,1.16
8,U7G U10A C13A,1.13
9,U7G U10C U11G,1.22
10,U7G U10C U11A,1.32
11,U7G U10C U11C,1.07
12,U7G U8G U11G C12G,1.28
13,U7G U8G U11G C12A,1.42
14,U7G U8G U11G C12U,1.25
15,U7G U10A C12U C13G,1.22
16,U7G U10A C12U C13A,1.2
17,U7G U10A C12U C13U,1.25
18,U7G U8G U10C U11C C12G,1.18
19,U7G U8G U10C U11C C12A,1.41
20,U7G U8G U10C U11C C12U,1.35
21,U7G U10C C13G,1.04
22,U7G U10C C13A,1.04
23,U7G U10C C13U,1.03
24,U7G U8G U10C U11A C12A,1.34

row,Variant,aptazyme ON/OFF ratio
1,U7G U8G U10C U11A C12U,1.36
2,U7G U8G U10C U11A C12G,1.21
3,U7G U10C C12G,1.26
4,U7G U10C C12A,1.12
5,U7G U10C C12U,1.2
6,U7G U8G U10C U11G C12G,1.43
7,U7G U8G U10C U11G C12U,1.23
8,U7G U8G U10C U11G C12A,1.41
9,U7G U8G U10G U11C C12U,1.24
10,U7G U8G U10G U11C C12A,1.17
11,U7G U8G U10G U11C C12G,1.29
12,U7G U8G U10G U11C C12U C13G,1.15
13,U7G U8G U10G U11C C12U C13U,1.36
14,U7G U8G U10G U11C C12U C13A,1.12
15,U7G U8G U10G U11A C13G,1.18
16,U7G U8G U10G U11A C13U,1.24
17,U7G U8G U10G U11A C13A,1.21
18,U7G U8G U10C U11C,2.2
19,U7G U8G U10C U11A,1.74
20,U7G U8G U10C U11G,1.56
21,U7G U10C U11C C12U C13A,1.06
22,U7G U10C U11C C12U C13G,1.09
23,U7G U10C U11C C12U C13U,1.09
